Results from PMC3855604.
Read-outs that look alike come from different tables or passages of the source.

Legend:
[1] = biological target: non-glycosylated Q123K PAI-1 (human) (UniProt P05121)
[2] = biological target: wild type glycosylated PAI-1 (human) (UniProt P05121)
[3] = biological target: wild type recombinant non-glycosylated PAI-1 (human) (UniProt P05121)
[4] = biological target: S119C (NBD S119C) PAI-1 (human) (UniProt P05121); test: stopped-flow fluorimetry
[5] = biological target: complex of NBD S119C PAI-1 with S195A tcuPA (UniProt P05121); test: stopped-flow fluorimetry
[6] = biological target: S119C (NBD S119C) PAI-1 (human) (UniProt P05121); test: stopped-flow fluorimetry; remark: listed apart in the source
[7] = biological target: complex of wt rPAI-1 with Vn (UniProt P05121)
[8] = biological target: non-glycosylated Q123K PAI-1 (human) (UniProt P05121); test: competition read by tPA amidolytic activity
[9] = biological target: M447C (NBD P1′) PAI-1 (human); test: stopped-flow fluorimetry
[10] = biological target: non-glycosylated Q123K PAI-1 (human) (UniProt P05121); test: competition read by tPA amidolytic activity; remark: listed apart in the source
[11] = biological target: wild type glycosylated PAI-1 (human) (UniProt P05121); test: competition read by tPA amidolytic activity
[12] = test system: M447C (NBD P1′) PAI-1; test: stopped-flow fluorimetry; conditions: other: stopped-flow fluorimetry

Monomeric vitronectin (natural protein)
kL2 (spontaneous inactivation of Q123K PAI-1 with Vn), 37°C [1]: 0.00018 s⁻¹
kL2 (spontaneous inactivation of Q123K PAI-1 with Vn), 50°C [1]: 0.0081 s⁻¹
kL2 (spontaneous inactivation of Q123K PAI-1 with Vn), 55°C [1]: 0.0109 s⁻¹
kL2 (spontaneous inactivation of Q123K PAI-1 with Vn), 60°C [1]: 0.0222 s⁻¹
kL2 (spontaneous inactivation of PAI-1 with Vn), 37°C [2]: 3.6e-05 s⁻¹
kL2 (spontaneous inactivation of PAI-1 with Vn), 50°C [2]: 0.00043 s⁻¹
kL2 (spontaneous inactivation of PAI-1 with Vn), 55°C [2]: 0.001 s⁻¹
kL2 (spontaneous inactivation of PAI-1 with Vn), 60°C [2]: 0.0049 s⁻¹
kL2 (spontaneous inactivation of PAI-1 with Vn), 60°C [3]: 0.011 s⁻¹
koff [4]: 0.0022 to 0.0072 s⁻¹
kon [4]: 7.2e+06 M⁻¹ s⁻¹
kon [5]: 1.33e+07 M⁻¹ s⁻¹
kon [6]: 7.5e+06 M⁻¹ s⁻¹

S195A two chain urokinase (S356A; S195A in chymotrypsin numbering) (enzyme)
kL4 (spontaneous inactivation of PAI-1 with Vn and S195A tcuPA), 37°C [7]: 3.4e-06 s⁻¹
kL4 (spontaneous inactivation of PAI-1 with Vn and S195A tcuPA), 50°C [7]: 0.00011 s⁻¹
kL4 (spontaneous inactivation of PAI-1 with Vn and S195A tcuPA), 55°C [7]: 0.00012 s⁻¹
kL4 (spontaneous inactivation of PAI-1 with Vn and S195A tcuPA), 60°C [7]: 0.00042 s⁻¹
kL3 (spontaneous inactivation of Q123K PAI-1 with S195A tcuPA), 37°C [1]: 5e-05 s⁻¹
kL3 (spontaneous inactivation of Q123K PAI-1 with S195A tcuPA), 50°C [1]: 0.00066 s⁻¹
kL3 (spontaneous inactivation of Q123K PAI-1 with S195A tcuPA), 60°C [1]: 0.00122 s⁻¹
kL3 (spontaneous inactivation of PAI-1 with S195A tcuPA), 50°C [2]: 0.00024 s⁻¹
kL3 (spontaneous inactivation of PAI-1 with S195A tcuPA), 60°C [2]: 0.0025 s⁻¹
Kd [8]: 1.3 nM
Kd [9]: 24.6 nM
koff [9]: 0.15 s⁻¹
kon [9]: 6.1e+06 M⁻¹ s⁻¹
Kd [10]: 1.3 nM
Kd [11]: 1.2 nM

recombinant two chain urokinase
KM [12]: 10.2 ± 2.2 µM

recombinant two chain urokinase (enzyme)
kon [9]: 2.68e+07 M⁻¹ s⁻¹
